Legend:
Experiment in all cases: cellular competition assay vs FL-labelled reference peptide on B cells; affinity category (high/good IC50<5 uM, intermediate 5-15 uM, low >15-50 uM)
[1] = molecular target: T1, HLA-A*0101 (human)
T1 construct: whole, on cells; also called A1

[2] = molecular target: T2, HLA-A*0301 (human)
T2 construct: whole, on cells; Class I molecule on intact B cells (EKR); also called A3

[3] = molecular target: T3, HLA-A*1101 (human)
T3 construct: whole, on cells; Class I molecule on intact B cells (BVR)

Row | Binder | IC50 [1] [µM] | IC50 [2] [µM] | IC50 [3] [µM]
1 | RVRAMAIY (also called A3 (156-163)) [p53 156-163 RVRAMAIY] |  | 5 to 15 | 
2 | YLDDRNTFRH (also called A1 (205-214)) [p53 205-214 YLDDRNTFRH] | 5 to 15 |  | 
3 | GTAKSVTCTY (also called A1 (117-126); A3 (117-126)) [p53 117-126 GTAKSVTCTY] | 5 to 15 | 5 to 15 | 

Next, values leading:

Row | IC50 [1] [µM] | IC50 [2] [µM] | IC50 [3] [µM] | Binder
4 | 5 to 15 |  |  | CTTIHYNY (also called A1 (229-236)) [p53 229-236 CTTIHYNY]
5 |  | 5 to 15 |  | GGSRAHSSHLK (also called A3 (360-370)) [p53 360-370 GGSRAHSSHLK]
6 |  |  | 5 to 15 | GQSTSRHKK (also called A11 (374-382)) [p53 374-382 GQSTSRHKK]

— patent publication US20150010586A1 (ACADEMISCH ZIEKENHUIS LEIDEN H O D N LUMC, published 2015)
